Data: patent US20200087681A1

Key:
[1] = molecular target: human serum immunoglobulin (IgG) (human); experiment: flow cytometry of cFcR-transduced human T cells incubated with human serum IgG, co-stained for CD16 and IgG
CD19 = CD19 (UniProt P15391); experiment: cell-based or functional assay
Sequence of UniProt P15391 (P15391 20-556 limits assumed): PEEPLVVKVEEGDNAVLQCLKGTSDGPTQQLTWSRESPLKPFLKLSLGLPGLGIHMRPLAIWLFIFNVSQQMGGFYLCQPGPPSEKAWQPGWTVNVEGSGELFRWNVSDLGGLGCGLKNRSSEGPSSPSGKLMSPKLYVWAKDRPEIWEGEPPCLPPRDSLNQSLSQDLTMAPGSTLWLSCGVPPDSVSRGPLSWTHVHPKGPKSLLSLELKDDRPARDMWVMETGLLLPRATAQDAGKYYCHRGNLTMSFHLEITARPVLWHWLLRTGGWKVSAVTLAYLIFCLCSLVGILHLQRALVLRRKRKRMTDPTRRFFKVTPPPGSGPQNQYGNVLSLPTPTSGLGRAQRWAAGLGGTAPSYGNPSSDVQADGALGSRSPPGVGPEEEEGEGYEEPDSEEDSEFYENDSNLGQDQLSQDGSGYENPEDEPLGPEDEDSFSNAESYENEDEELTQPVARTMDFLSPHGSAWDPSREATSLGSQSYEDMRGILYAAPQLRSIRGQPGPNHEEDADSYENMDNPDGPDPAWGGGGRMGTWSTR

percent of cells with CD16 and IgG co-staining [1] | degranulation assay, CD107a upregulation on TCR+ CAR19+ T cells after 4 hr with CD19+ Daudi (CD19) | degranulation assay, CD107a upregulation on TCR- CAR19+ T cells after 4 hr with CD19+ Daudi (CD19) | Substance
7.5% | – | – | chimeric FcR (cFcR) (from UniProt P08637 17-208; P01732 138-206; Q07011 214-255; P20963 52-164) (receptor)
– | 53% | 57% | CD3z-41BB-CD8-CAR19scFv (4G7) chimeric antigen receptor (CAR19) (from UniProt P01732 138-206; Q07011 214-255; P20963 52-164)
